Patent US20120277164A1 (IMPERIAL INNOVATIONS, published 2012)
Square brackets hold non-standard residues; d marks the D form. * marks the point of attachment. Fmoc = O=C(OCC1c2ccccc2-c2ccccc21)*; Cbz = O=C(OCc1ccccc1)*; Bz = O=C(c1ccccc1)*; βAla = NCCC(=O)O

T1: Gadd45β/MKK7 complex (biotin-hGadd45β with coated GST-MKK7, ELISA format) (human) (UniProt O75293)
T1 sequence (biotinylated (sites not stated), looked up) 1: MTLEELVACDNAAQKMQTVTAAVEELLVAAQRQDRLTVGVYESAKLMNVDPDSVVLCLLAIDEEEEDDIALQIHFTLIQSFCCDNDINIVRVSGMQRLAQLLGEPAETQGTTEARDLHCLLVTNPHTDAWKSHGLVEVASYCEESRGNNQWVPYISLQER
T1 sequence (biotinylated (sites not stated), looked up) 2: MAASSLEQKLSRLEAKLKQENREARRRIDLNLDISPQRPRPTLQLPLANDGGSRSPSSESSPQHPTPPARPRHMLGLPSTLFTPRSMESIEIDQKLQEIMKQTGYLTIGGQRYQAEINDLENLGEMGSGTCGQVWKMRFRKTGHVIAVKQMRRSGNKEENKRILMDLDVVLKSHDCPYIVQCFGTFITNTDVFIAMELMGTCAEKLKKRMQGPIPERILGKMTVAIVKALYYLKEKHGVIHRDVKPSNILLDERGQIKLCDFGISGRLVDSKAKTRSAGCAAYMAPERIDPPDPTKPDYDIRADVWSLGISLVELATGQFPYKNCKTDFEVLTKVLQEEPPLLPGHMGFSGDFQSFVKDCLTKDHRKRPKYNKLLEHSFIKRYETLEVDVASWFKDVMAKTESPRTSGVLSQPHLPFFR

T2: Gadd45β/MKK7 complex (biotin-hGadd45β with coated GST-MKK7, ELISA format) (human, UniProt O75293 1-160; O14733 1-419, biotinylated (sites not given))
T2 construct: not shown: glutathione S-transferase (GST) fusion partner
T2 sequence (looked up) 1: T1 sequence (biotinylated (sites not stated), looked up) 1
T2 sequence (looked up) 2: T1 sequence (biotinylated (sites not stated), looked up) 2

B1: Ac-YDHFLys(Z)-NH2 (peptide)
peptide: Ac-YDHFK(Cbz)-NH2
SMILES: CC(=O)N[C@@H](Cc1ccc(O)cc1)C(=O)N[C@@H](CC(=O)O)C(=O)N[C@@H](Cc1c[nH]cn1)C(=O)N[C@@H](Cc1ccccc1)C(=O)N[C@@H](CCCCNC(=O)OCc1ccccc1)C(N)=O
B2: DTP2, Acetyl-(D-Tyr)-(D-Glu)-(D-Arg)-(D-Phe)-NH2 (peptide)
peptide: Ac-[dY][dE][dR][dF]-NH2
SMILES: CC(=O)N[C@H](Cc1ccc(O)cc1)C(=O)N[C@H](CCC(=O)O)C(=O)N[C@H](CCCNC(=N)N)C(=O)N[C@H](Cc1ccccc1)C(N)=O
B3: Ac-YDHQLys(Z)-NH2 (peptide)
peptide: Ac-YDHQK(Cbz)-NH2
SMILES: CC(=O)N[C@@H](Cc1ccc(O)cc1)C(=O)N[C@@H](CC(=O)O)C(=O)N[C@@H](Cc1c[nH]cn1)C(=O)N[C@@H](CCC(N)=O)C(=O)N[C@@H](CCCCNC(=O)OCc1ccccc1)C(N)=O
B4: Fmoc(βAla)2-YDHR-NH2 (peptide)
peptide: {Fmoc-βAla-βAla}-YDHR-NH2
SMILES: N=C(N)NCCC[C@H](NC(=O)[C@H](Cc1c[nH]cn1)NC(=O)[C@H](CC(=O)O)NC(=O)[C@H](Cc1ccc(O)cc1)NC(=O)CCNC(=O)CCNC(=O)OCC1c2ccccc2-c2ccccc21)C(N)=O
B5: Fmoc(βAla)2-YDHD-NH2 (peptide)
peptide: {Fmoc-βAla-βAla}-YDHD-NH2
SMILES: NC(=O)[C@H](CC(=O)O)NC(=O)[C@H](Cc1c[nH]cn1)NC(=O)[C@H](CC(=O)O)NC(=O)[C@H](Cc1ccc(O)cc1)NC(=O)CCNC(=O)CCNC(=O)OCC1c2ccccc2-c2ccccc21
B6: Fmoc(βAla)2-YDHM-NH2 (peptide)
peptide: {Fmoc-βAla-βAla}-YDHM-NH2
SMILES: CSCC[C@H](NC(=O)[C@H](Cc1c[nH]cn1)NC(=O)[C@H](CC(=O)O)NC(=O)[C@H](Cc1ccc(O)cc1)NC(=O)CCNC(=O)CCNC(=O)OCC1c2ccccc2-c2ccccc21)C(N)=O
B7: Fmoc(βAla)2-YDHA-NH2 (peptide)
peptide: {Fmoc-βAla-βAla}-YDHA-NH2
SMILES: C[C@H](NC(=O)[C@H](Cc1c[nH]cn1)NC(=O)[C@H](CC(=O)O)NC(=O)[C@H](Cc1ccc(O)cc1)NC(=O)CCNC(=O)CCNC(=O)OCC1c2ccccc2-c2ccccc21)C(N)=O
B8: Fmoc(βAla)2-YDHP-NH2 (peptide)
peptide: {Fmoc-βAla-βAla}-YDHP-NH2
SMILES: NC(=O)[C@@H]1CCCN1C(=O)[C@H](Cc1c[nH]cn1)NC(=O)[C@H](CC(=O)O)NC(=O)[C@H](Cc1ccc(O)cc1)NC(=O)CCNC(=O)CCNC(=O)OCC1c2ccccc2-c2ccccc21
B9: Fmoc(βAla)2-YDHH-NH2 (peptide)
peptide: {Fmoc-βAla-βAla}-YDHH-NH2
SMILES: NC(=O)[C@H](Cc1c[nH]cn1)NC(=O)[C@H](Cc1c[nH]cn1)NC(=O)[C@H](CC(=O)O)NC(=O)[C@H](Cc1ccc(O)cc1)NC(=O)CCNC(=O)CCNC(=O)OCC1c2ccccc2-c2ccccc21
B10: Fmoc(βAla)2-YDHC-NH2 (peptide)
peptide: {Fmoc-βAla-βAla}-YDHC-NH2
SMILES: NC(=O)[C@H](CS)NC(=O)[C@H](Cc1c[nH]cn1)NC(=O)[C@H](CC(=O)O)NC(=O)[C@H](Cc1ccc(O)cc1)NC(=O)CCNC(=O)CCNC(=O)OCC1c2ccccc2-c2ccccc21
B11: Fmoc(βAla)2-YDHS-NH2 (peptide)
peptide: {Fmoc-βAla-βAla}-YDHS-NH2
SMILES: NC(=O)[C@H](CO)NC(=O)[C@H](Cc1c[nH]cn1)NC(=O)[C@H](CC(=O)O)NC(=O)[C@H](Cc1ccc(O)cc1)NC(=O)CCNC(=O)CCNC(=O)OCC1c2ccccc2-c2ccccc21
B12: Fmoc(βAla)2-YDHL-NH2 (peptide)
peptide: {Fmoc-βAla-βAla}-YDHL-NH2
SMILES: CC(C)C[C@H](NC(=O)[C@H](Cc1c[nH]cn1)NC(=O)[C@H](CC(=O)O)NC(=O)[C@H](Cc1ccc(O)cc1)NC(=O)CCNC(=O)CCNC(=O)OCC1c2ccccc2-c2ccccc21)C(N)=O
B13: Fmoc(βAla)2-YDHY-NH2 (peptide)
peptide: {Fmoc-βAla-βAla}-YDHY-NH2
SMILES: NC(=O)[C@H](Cc1ccc(O)cc1)NC(=O)[C@H](Cc1c[nH]cn1)NC(=O)[C@H](CC(=O)O)NC(=O)[C@H](Cc1ccc(O)cc1)NC(=O)CCNC(=O)CCNC(=O)OCC1c2ccccc2-c2ccccc21
B14: DTP1, Acetyl-(D-Tyr)-(D-Asp)-(D-His)-(D-Phe)-NH2 (peptide)
peptide: Ac-[dY][dD][dH][dF]-NH2
SMILES: CC(=O)N[C@H](Cc1ccc(O)cc1)C(=O)N[C@H](CC(=O)O)C(=O)N[C@H](Cc1c[nH]cn1)C(=O)N[C@H](Cc1ccccc1)C(N)=O
B15: Ac-YERFLys(Z)-NH2 (peptide)
peptide: Ac-YERFK(Cbz)-NH2
SMILES: CC(=O)N[C@@H](Cc1ccc(O)cc1)C(=O)N[C@@H](CCC(=O)O)C(=O)N[C@@H](CCCNC(=N)N)C(=O)N[C@@H](Cc1ccccc1)C(=O)N[C@@H](CCCCNC(=O)OCc1ccccc1)C(N)=O

Tests used:
[1] = target: T1, Gadd45β/MKK7 complex (biotin-hGadd45β with coated GST-MKK7, ELISA format) (human); experiment: competition ELISA; coated GST-MKK7, biotin-hGadd45β; single dose
[2] = target: T1, Gadd45β/MKK7 complex (biotin-hGadd45β with coated GST-MKK7, ELISA format) (human); experiment: competition ELISA; coated GST-MKK7 42 nM, biotin-hGadd45β 21 nM
[3] = target: T1, Gadd45β/MKK7 complex (biotin-hGadd45β with coated GST-MKK7, ELISA format) (human); experiment: derived from the in vitro ELISA competition IC50 (Gadd45β/MKK7)
[4] = target: T1, Gadd45β/MKK7 complex (biotin-hGadd45β with coated GST-MKK7, ELISA format) (human); experiment: competition ELISA; coated MKK7 42 nM, biotin-hGadd45β 21 nM, competitor 42 nM nominal
[5] = target: T1, Gadd45β/MKK7 complex (biotin-hGadd45β with coated GST-MKK7, ELISA format) (human); experiment: competition ELISA; coated MKK7, biotin-hGadd45β (FIG. 3C)
[6] = target: T2, Gadd45β/MKK7 complex (biotin-hGadd45β …); experiment: competition ELISA; coated MKK7 42 nM, biotin-hGadd45β 21 nM, competitor 42 nM nominal
[7] = target: T2, Gadd45β/MKK7 complex (biotin-hGadd45β …); experiment: competition ELISA; coated GST-MKK7, biotin-hGadd45β; single dose
[8] = target: T2, Gadd45β/MKK7 complex (biotin-hGadd45β …); experiment: as above; remark: listed apart in the source
[9] = target: T1, Gadd45β/MKK7 complex (biotin-hGadd45β with coated GST-MKK7, ELISA format) (human); experiment: competition ELISA after 48-hr pre-incubation of the peptide with human serum at 37 °C
[10] = target: T1, Gadd45β/MKK7 complex (biotin-hGadd45β with coated GST-MKK7, ELISA format) (human); experiment: ELISA competition assay: coated MKK7, soluble biotin-hGadd45β; peptide pre-incubated 48 hr with human serum at 37° C.; after 48-hr incubation with human serum at 37° C.

Molecule | % Inhibition of Gadd45β-MKK7 binding [1] [%] | % Inhibition of Gadd45β-MKK7 binding [6] [%] | other results
Fmoc-YDFQ-NH2 | 19 | – | –
mDTP3 (Ac-D-Tyr-D-Arg-D-Phe-NH2) (peptide) | – | – | IC50 [2]: 0.157 nM; Ligand Efficiency [3]: -0.24
Fmoc(βAla)2-YDHQ-NH2 as printed in row r19 of Table I | – | – | % Inhibition of Gadd45β-MKK7 binding [4]: 26%
Cbz-YD(OMe)HQ-NH2 [Z-YD(OMe)HQ-NH2] | 3 | – | –
B1 | 8 | – | –
B2 | – | – | IC50 [5]: 0.19 nM
B3 | 2 | – | –
B4 | – | – | % Inhibition of Gadd45β-MKK7 binding [4]: 2%
{3‑OH‑4MeO‑benzoic acid}-YDHQ-NH2 (not fully specified) [3-OH-4MeO-Benzoid acid-YDHQ-NH2] | 7 | – | –
Ac-YDHQ-NH2 [Ac-YDHQ-NH2] | 99 | – | –
{Fmoc-βAla-βAla}-YDHF-NH2 (also called Fmoc-LTP1) [Fmoc(βAla)2-YDHF-NH2] | – | 99 | –
B5 | – | 0 | –
B6 | – | 14 | –
B7 | – | 15 | –
B8 | – | 16 | –
Ac-YEHF-NH2 [Ac-YEHF-NH2] | – | – | % Inhibition of Gadd45β-MKK7 binding [7]: 52%; % Inhibition of Gadd45β-MKK7 binding [8]: 23%
B9 | – | 40 | –
B10 | – | 44 | –
B11 | – | 0 | –
B12 | – | 33 | –
{Fmoc-βAla-βAla}-YDHQ-NH2 [Fmoc(βAla)2-YDHQ-NH2] | – | 0 | –
B13 | – | 63 | –
Cbz-[dY][dD][dH][dF]-NH2 [Z-Tyr-Asp-His-Phe-NH2 (Z-DTP1)] | – | – | IC50 [2]: 0.22 nM; IC50 [9]: 0.19 nM; IC50 [10]: 0.19 nM
Ac-AERF-NH2 [Ac-AERF-NH2] | 7 | – | –
B14 | – | – | IC50 [5]: 0.22 nM
B15 | 6 | – | –
Bz-YDHQ-NH2 [Benzoic acid-YDHQ-NH2] | 1 | – | –
Cbz-[dY][dE][dR][dF]-NH2 [Z-DTP2 (Z-D-Tyr-D-Glu-D-Arg-D-Phe-NH2)] | – | – | IC50 [2]: 0.19 nM; IC50 [9]: 0.18 nM; Ligand Efficiency [3]: -0.26; IC50 [10]: 0.18 nM
